The text below walks through data of article PMC4701713, “DNA Entry into and Exit out of the Cohesin Ring by an Interlocking Gate Mechanism” (Cell, 2015).

The labels stand for the following.
B1: Fission-yeast Pds5 (natural protein, fission yeast, UniProt Q9HFF5 1-1205, looked up)
chain: MIKLQFQRNIVPTHDNPLTTSEILKRLRDLLGELTSLSQDTIDRDSVLPVARSLVNNNLLHHKDKGIRSYTLCCIVELLRLCAPDAPFTLSQLEDIFQVILKILSGLMNQESTYYPQIYEILESLSNVKSAVLIVDLPNAEEFLVNIFRLFFDLARKGTTKNVEFYMLDIINQLINEINTIPAAALNILFAQLISGKGVRQTIGSSDSTNHGPAFQLARNIFHDSADRLQRYVCQYFSDIIFDSRDSLSDSMTTPEFIFSHNLVLQLWKYAPTTLLNIIPQFENELQAEQTSVRLVAIETVGLMLQDNAIWSDYPRVWSAFCGRLNDKSVACRIKCIEVASNALQNSLATSEIIENVVQMLQSKLADTDEKVRVATLKTIEQLTFETFKMQFSVQALKLMGDRLRDRKLNVRLQAIRTLSQIYNRAYQDLIDGVEYSIQMFSWIPSSLLEVFYVNDETTNAAVEICMAELVLQYLSSDTQTRLNRLFLSIKYFSEKAMRVFILLLQRQVKYSELLNYYIECCKNYNGGVMDNDEESITNKLKKVIDIISSKSSNPTLTEATFRKFAELNDRQSYKMLLQTFSIKSEYQVVLKSIKYLFKRVSETLSTASLECFRIFVYRSALFAFNKSNVHEIIQLLNEPVKYHNFLKPSEALLQHLPLIHPNIYGEVVIEVENIIVSSGIESDPKVIKALSQFSKRKKNFSIQTTTAEILRKLCLHGTQEQAKQAATIIAITETKEFKLDMITNIVENLEYNGGLPVRLMTLGQLFLYTLEEVEKVADQVTEFLVKKVIQRFPEKYDDTHNDEEWCTYEKLDNLTMCKVLAIRVLVNRLRAAAGGTEALNIGAPIIKLLKVLLMADGELSPFKNTPKISRAYLRLTASKYFLKLCSIPFYAEHIDFSSYVQISLLCQDENFDVRNLFLTKLQKQLQLKKLPISYYPLLFLTAVDPEEEIKTKASIWIRSQVAFFQKTHDFTMEYVATYLIHLLSHHPDISSIESENSLDFIAYIRFYVDTVVNSENVPIVFHLMQRIKQSYDVIEDGNNYIYVLSDMAQKILQVKSQNFGWSLTTYPKQIKLPYEILRPIPSIDEKKRIFNKIFITPKMESQIEHAIRTPVSSFAKQTTNKHANLKQKKTHSSKSDKKSSRRRKNEKRRKLNEQNPNIRNVPERSSSRFQGIRINYSEAPSSSEEISEEEEEISEEDFDEIEDL
notes: Pds5, cohesin subunit of fission yeast; Protein A was removed by protease; source: overexpressed in budding yeast, purified (IgG-agarose, Capto Q, gel filtration)

Holding throughout (conditions): both partners purified
In experiment [1] the target is T1, Fission-yeast cohesin tetramer (Psm1, Psm3, Rad21 and Psc3) (fission yeast, UniProt O94383 1-1228; O42649 1-1194; P30776 1-628; O13816 1-962).
T1 construct: Psm1 (Smc1), SMC subunit of fission-yeast cohesin; Psm3 (Smc3), SMC subunit of fission-yeast cohesin; Rad21, kleisin subunit of fission-yeast cohesin; Psc3 (Scc3), subunit of fission-yeast cohesin; also called "4"; source: recombinant, purified as described (Murayama and Uhlmann, 2014); not shown: Pk, C-terminal, kept; copies: + + +
T1 sequence (O94383 whole entry, chain 1 of 3): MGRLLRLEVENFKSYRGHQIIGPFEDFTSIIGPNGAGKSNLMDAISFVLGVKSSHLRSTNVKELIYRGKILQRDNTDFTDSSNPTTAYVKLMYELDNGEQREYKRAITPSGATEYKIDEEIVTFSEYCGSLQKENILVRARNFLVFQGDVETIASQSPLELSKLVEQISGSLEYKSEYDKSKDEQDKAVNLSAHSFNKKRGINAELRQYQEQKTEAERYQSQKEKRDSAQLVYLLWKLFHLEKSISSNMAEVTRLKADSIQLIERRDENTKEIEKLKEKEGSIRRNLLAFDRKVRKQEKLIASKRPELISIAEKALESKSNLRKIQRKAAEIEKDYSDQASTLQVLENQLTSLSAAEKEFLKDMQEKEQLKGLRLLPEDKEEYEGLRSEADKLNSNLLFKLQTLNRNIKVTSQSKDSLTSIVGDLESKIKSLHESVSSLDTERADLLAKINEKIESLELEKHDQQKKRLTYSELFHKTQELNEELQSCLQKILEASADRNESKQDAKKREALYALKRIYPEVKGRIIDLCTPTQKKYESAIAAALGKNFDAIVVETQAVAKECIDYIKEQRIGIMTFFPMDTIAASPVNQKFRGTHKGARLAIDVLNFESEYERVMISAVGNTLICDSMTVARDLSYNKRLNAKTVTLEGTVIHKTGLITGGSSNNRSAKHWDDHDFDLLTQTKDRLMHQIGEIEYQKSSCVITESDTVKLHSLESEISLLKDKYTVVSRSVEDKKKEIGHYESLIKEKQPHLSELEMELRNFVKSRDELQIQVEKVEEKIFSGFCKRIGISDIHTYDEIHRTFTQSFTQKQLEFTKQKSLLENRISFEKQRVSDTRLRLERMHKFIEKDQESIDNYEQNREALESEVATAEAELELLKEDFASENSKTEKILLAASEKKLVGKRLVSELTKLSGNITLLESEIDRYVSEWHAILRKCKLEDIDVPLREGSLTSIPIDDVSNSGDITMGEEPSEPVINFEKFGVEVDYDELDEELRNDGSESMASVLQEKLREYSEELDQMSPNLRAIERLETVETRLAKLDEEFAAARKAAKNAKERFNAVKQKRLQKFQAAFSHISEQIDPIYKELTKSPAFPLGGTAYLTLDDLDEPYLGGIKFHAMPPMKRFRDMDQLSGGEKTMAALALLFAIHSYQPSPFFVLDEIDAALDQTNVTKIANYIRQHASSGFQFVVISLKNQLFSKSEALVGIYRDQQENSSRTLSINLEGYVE
T1 sequence (O42649 whole entry, chain 2 of 3): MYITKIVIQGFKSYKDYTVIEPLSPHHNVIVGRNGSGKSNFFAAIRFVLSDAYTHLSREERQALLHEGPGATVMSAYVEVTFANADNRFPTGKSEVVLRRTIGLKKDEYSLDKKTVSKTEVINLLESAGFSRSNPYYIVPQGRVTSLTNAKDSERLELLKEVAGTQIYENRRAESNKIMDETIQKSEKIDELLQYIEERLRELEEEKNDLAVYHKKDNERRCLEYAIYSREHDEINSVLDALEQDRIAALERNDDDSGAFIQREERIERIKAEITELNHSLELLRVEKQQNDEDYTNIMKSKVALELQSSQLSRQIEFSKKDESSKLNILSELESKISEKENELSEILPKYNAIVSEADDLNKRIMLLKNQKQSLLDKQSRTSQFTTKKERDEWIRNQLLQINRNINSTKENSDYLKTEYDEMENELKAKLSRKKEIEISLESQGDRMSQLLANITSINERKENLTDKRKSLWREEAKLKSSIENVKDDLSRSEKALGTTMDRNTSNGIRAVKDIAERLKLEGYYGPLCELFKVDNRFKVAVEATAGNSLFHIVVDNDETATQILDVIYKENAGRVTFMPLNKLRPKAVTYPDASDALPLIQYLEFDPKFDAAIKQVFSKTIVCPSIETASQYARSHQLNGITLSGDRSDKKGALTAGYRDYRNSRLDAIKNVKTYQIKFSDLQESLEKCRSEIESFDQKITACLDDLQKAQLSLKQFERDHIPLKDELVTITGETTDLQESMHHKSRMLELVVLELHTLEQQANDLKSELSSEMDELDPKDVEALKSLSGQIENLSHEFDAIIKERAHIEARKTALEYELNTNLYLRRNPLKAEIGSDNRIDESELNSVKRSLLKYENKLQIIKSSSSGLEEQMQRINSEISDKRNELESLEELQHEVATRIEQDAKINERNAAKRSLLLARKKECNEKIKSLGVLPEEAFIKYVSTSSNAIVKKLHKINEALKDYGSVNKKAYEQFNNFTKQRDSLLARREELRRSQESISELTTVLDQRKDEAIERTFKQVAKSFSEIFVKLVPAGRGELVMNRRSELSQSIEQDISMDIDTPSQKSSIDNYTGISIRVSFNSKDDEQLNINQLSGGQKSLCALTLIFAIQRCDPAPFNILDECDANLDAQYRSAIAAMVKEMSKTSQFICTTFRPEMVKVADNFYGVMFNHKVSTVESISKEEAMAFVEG
T1 sequence (P30776 whole entry, chain 3 of 3): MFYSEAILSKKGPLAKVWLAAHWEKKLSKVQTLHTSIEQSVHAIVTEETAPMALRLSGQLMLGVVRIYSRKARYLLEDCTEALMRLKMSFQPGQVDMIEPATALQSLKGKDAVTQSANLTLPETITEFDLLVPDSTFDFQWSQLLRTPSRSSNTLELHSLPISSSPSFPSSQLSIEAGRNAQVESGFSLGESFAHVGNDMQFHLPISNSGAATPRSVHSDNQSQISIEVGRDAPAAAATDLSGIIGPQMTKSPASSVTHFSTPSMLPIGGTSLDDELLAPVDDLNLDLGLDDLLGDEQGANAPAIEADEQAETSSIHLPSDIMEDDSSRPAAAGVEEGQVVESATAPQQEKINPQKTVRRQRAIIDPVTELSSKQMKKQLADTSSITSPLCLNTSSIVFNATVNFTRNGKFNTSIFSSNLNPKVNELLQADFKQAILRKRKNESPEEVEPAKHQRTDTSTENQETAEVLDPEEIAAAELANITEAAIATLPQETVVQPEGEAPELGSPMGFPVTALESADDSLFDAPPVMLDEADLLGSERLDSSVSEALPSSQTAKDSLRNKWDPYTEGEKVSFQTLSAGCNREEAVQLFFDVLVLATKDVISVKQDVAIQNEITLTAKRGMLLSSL
In words: co-IP; recombinant cohesin tetramer or trimer immunoprecipitated via Rad21-HA with Pds5 and Wapl both added; bound proteins by western blotting. For orientation: In western blotting, separated proteins are transferred to a membrane and probed.

The target of experiment [2] is T2, Fission-yeast cohesin trimer (Psm1, Psm3 and Rad21) (fission yeast, UniProt O94383 1-1228; O42649 1-1194; P30776 1-628).
T2 construct: Psm1 (Smc1), SMC subunit of fission-yeast cohesin; Psm3 (Smc3), SMC subunit of fission-yeast cohesin; Rad21, kleisin subunit of fission-yeast cohesin; Lacks Psc3; source: recombinant, purified (Murayama and Uhlmann, 2014); copies: + +
T2 sequence (O94383 whole entry, chain 1 of 3): as the sequence (O94383 whole entry, chain 1 of 3) above
T2 sequence (O42649 whole entry, chain 2 of 3): as the sequence (O42649 whole entry, chain 2 of 3) above
T2 sequence (P30776 whole entry, chain 3 of 3): as the sequence (P30776 whole entry, chain 3 of 3) above
The experiment is described as above.

Experiment [3] addresses T3, Mis4-Ssl3 cohesin loader (fission yeast, UniProt Q09725 1-1587; O94459 1-559).
T3 construct: Mis4, subunit of the fission-yeast cohesin loader; Ssl3, subunit of the fission-yeast cohesin loader; also called MS; source: prepared and purified as described (Murayama and Uhlmann, 2014)
In words: co-IP; Psc3 immunoprecipitated; co-precipitation of the Psm1-Psm3 hinge and of the cohesin loader analysed.

Experiment [4] has as its target B1. In words: SEC; purified Pds5 and Wapl mixed in equimolar amounts and analysed by gel filtration; fractions by SDS-PAGE and silver staining. (In general: SEC sorts molecules by how far they enter the pores of the column.)

As to B1, the binding result in experiment [1] and in experiment [2] was “binds” in each case.

B2: Fission-yeast Psc3 (natural protein, fission yeast, UniProt O13816 1-962, looked up)
chain: MSESVTTGSDDDGGDRESSPVMLSQSFDPMSSSSNSSSEENSDDDYEKTISSKKRHPRPNSKGVNVKRSRRNAIVEEDPQEEIFNNLFAFLLDQKVDTMDIAVSWFADYAKDNQSALANLINFILKCCGCNRAINVFDVQDQDSASATLSQIQLSVERTSTRDYPLNSKNLKFRNFRKRLTGLLSNFVSQLSIRNYLYNSTVFEDIMSWVVAMSSSTMRPIRHTATVFCLNIMTFLCEKSKELLNEHAIATKQLEKEEKRSRVNRNRINELNNSLGEIVKQQDTLTTYLNDYFDSVFVHRYRDVEPKIRVDCLQELGVWINTVPSIFFSGSYLRYLGWMLSDINTTVRLTVVKVLRKFFETDSFIGGLRHFSSRFKERILEMSCVDADIGVRVASIRLCNAMRTCGFLENSEILKVLKLILDINPRVQREAVLFLCKVVDESVNEKIDLWGEEDYILKAFSQTSLTTFSVHWIKFSQMCKLLEEVRLSYQSSFDYDTLLRIFQKNGNFITPITQALLNACEIDSIYQSWEDISNFVLFDNYTSTLKDPIDSILSFCKLNDFQESILLQLLSASIQTVCNNNFITPKTVHNKQAAETTNDQNKDKDLLYLNLLPYINSITERNSASPTLLHDSLRLLFSMDLTEMTDPQLSRHFELLINNLKKFFLTNNDLQIIQGCTILFLRLDSIPALKEDLKLLVTDICDQTVTEFLKNFGSFNIQDAVITKDEFVIFEACLTRIEGCTSLKDFSDYPEFDIIYERLVSLLSRVPNSYEDTLKFSAINTLQSLLFWFFLRKDNPADEEKKKDDETKVFNCLINIMNNDSSKILQLQAARTFLETVIMKEGVKASHYNDDNRVSEEHNFLKPQFLDALLKILEGWLYTYAKVGQFPFKRLTQASSPHTQISLDKNPLNRRLLEHVCCDLTSKLLIVVSLSNTITPEFSQQFCELRGHYGPKLSAIVDEFLN
notes: Psc3 (Scc3), subunit of fission-yeast cohesin, as a separate protein; source: prepared and purified as described (Murayama and Uhlmann, 2014)
Consider B2, for which the binding result in experiment [3] is on record as “binds”.

B3: Fission-yeast Wapl (natural protein, fission yeast, UniProt O94364 1-602, looked up)
chain: MKRGKCKEKDNGLKRISSESEVWNFLDVTVSELNKQKRSPGQTVSKRLHKKQRVVSNPDLSLPSSPVKQILRNGLQNSKYGSHKTGLERSASCSSIDASANHSSTTYREQRSYLMEEGLDTQPIVPREVSSGRELDSTNHTIGTERAFLIEEDVSEDDEIQMKSIHELRFAGEQQRIVDEIEYLVDGVTFSGNSSASRYLSLIGIAEKMFDNSFRLCLKSIRDVFLRIFEEIDPKDTLHTFLQIYIFATMANEMDCMSSLLDAYSNNVKLLLQTAITLEPQVPVSILAKSLPKSVKGAVQEFVIKAELTFSFSNESLASSDSISLAAIALMKTSSGVFAESELFTELINLLIEKSYPILKENDGSNNFLLHALCSSLEKFTDFQGSEKIQKVSQILSSKLQILIDEHNETNSPKIDDTVVHACSEKLLRTLIQTVNSNSDHALAVSKSEVPLFAYKILQKFSNFSSDDETTRELIILILGLLLGLVEESHEFIQTITHVEVSFGASALDVLISFYQKNESIVEISGYVVMILSHCFLNDPKAFAQLKPLISQFYESLHKFKNFHLKLKEELMMMGSNGLAIVSIIDELHKSLQDYLRSDLVK
notes: Wapl, cohesin subunit of fission yeast; GST was removed by protease; source: E. coli, purified (glutathione sepharose, heparin chromatography)
Turning to B3, the binding result in experiment [4], in experiment [1] and in experiment [2] was “binds” in each case.
